EC50, binding result and koff data for nine molecules are collected here from patent US20200140532A1 (Ablynx, published 2020).

The labels stand for the following.
T1: recombinant human Brevican (human, UniProt Q96GW7 23-911, limits assumed)
T1 sequence: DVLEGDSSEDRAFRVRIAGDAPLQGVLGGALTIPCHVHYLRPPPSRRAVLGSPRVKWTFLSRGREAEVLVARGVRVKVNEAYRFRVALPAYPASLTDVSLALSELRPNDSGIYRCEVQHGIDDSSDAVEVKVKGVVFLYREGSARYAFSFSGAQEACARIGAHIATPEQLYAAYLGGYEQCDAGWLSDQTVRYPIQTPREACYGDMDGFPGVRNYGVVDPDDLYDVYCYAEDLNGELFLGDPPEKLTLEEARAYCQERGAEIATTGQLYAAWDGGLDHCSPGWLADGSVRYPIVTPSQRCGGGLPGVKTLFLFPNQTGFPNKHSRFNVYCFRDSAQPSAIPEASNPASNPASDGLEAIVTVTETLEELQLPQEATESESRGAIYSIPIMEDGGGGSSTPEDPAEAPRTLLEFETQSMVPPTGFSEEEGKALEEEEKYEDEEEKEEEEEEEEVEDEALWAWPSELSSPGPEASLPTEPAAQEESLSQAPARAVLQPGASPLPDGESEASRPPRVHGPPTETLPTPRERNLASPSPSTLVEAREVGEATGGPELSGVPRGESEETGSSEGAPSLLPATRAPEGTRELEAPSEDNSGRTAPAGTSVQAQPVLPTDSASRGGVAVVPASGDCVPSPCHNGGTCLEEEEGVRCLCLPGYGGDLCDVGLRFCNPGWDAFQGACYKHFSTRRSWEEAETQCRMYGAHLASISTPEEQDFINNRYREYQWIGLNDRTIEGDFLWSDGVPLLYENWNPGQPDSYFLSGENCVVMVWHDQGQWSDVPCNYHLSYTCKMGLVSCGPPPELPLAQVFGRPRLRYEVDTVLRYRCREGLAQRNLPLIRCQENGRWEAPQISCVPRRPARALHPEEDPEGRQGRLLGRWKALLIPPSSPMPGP

B1: C01010060 (606A07-ALB26) (VHH, not shown: small tags and cut ends)
VHH: DVQLVESGGGLVQPGGSLRLSCVASGRTFSIYGMGWFRQAPGKEREFVAAINGGSRTYYADSVKGRFTISRDNSKNTVYLQMNSLRPEDTAVYYCAADRSGYGTSLDWWYDYWGQGTLVTVSS
B2: C01010113 (ALB26-606A07-606A07) (VHH, not shown: small tags and cut ends)
VHH 1: B1 VHH
VHH 2: B1 VHH
notes: also called AL326-606A07-606A07
B3: C01010046 (601E08-ALB26) (VHH, not shown: small tags and cut ends)
VHH: DVQLVESGGGLVQPGGSLRLSCTASGRTFSSYAVGWFRQAPGKEREFVAAISRSGRSTYYADSVKGRFTISRDNSKNTVYLQMNSLRPEDTAVYYCAAGLSYYSPHAYYDYWGQGTLVTVSS
B4: C01010054 (114F08-ALB26) (VHH, not shown: small tags and cut ends)
VHH: EVQLVESGGGLVQAGGSLRLSCAASGSTFIINVVRWYRRTPGKQRELVATISSGGNANYVDSVRGRFSISRDGAKNAVDLQMNGLKPEDTAVYYCNVPTTHYGGVYYGPYWGQGTQVTVSS
notes: also called C010100054
B5: C01010118 (ALB26-114F08-114F08) (VHH, not shown: small tags and cut ends)
VHH 1: B4 VHH
VHH 2: B4 VHH
notes: also called C010100118
B6: C01010097 (608A05-ALB26) (VHH, not shown: small tags and cut ends)
VHH: DVQLVESGGGLVQPGGSLRLSCAASGRTFSTYTMGWFRQAPGKEREFVAAISWSGGTTYYADSVKGRFTISRDNSKNTVYLQMNSLRPEDTAVYYCAARPRYYYYSLYSYDYWGQGTLVTVSS
B7: C01010109 (ALB26-608A05-608A05) (VHH, not shown: small tags and cut ends)
VHH 1: B6 VHH
VHH 2: B6 VHH
B8: C01010094 (604F02-ALB26) (VHH, not shown: small tags and cut ends)
VHH: DVQLVESGGGLVQPGGSLRLSCAASGRTFSSYTMGWFRQAPGKEREFVAAISWSGGRTYYADSVKGRFTISRDNSKNTVYLQMNSLRPEDTAVYYCAAYRRRRASSNRGLWDYWGQGTLVTVSS
notes: also called C010100094
B9: C01010106 (ALB26-604F02-604F02) (VHH, not shown: large carriers; small tags and cut ends)
VHH 1: B8 VHH
VHH 2: B8 VHH

One assay deals with T2, recombinant human Aggrecan G1-IGD-G2 (human, UniProt P16112 20-676).
T2 construct: Only the G1-IGD-G2 region was used (R&D Systems 1220-PG is named for the immunogen); also called Hu G1-IGD-G2
The assay is described as follows: ELISA on recombinant G1-IGD-G2.
One may read the EC50 as the concentration giving half of the maximal effect. As for B1, the EC50 was 12 nM.
Still for that read-out and setting: with B2 the figure was 0.67 nM; with B3, 5.1 nM.
Same read-out and setting: with B4 the figure was 6 nM.
Same read-out and setting: with B5 the figure was 0.11 nM; with B6, 0.24 nM; with B7, 0.1 nM.
On to B8, for which the EC50 was found to be 1.2 nM.
Same read-out and setting: next, B9: 0.066 nM.

The target of the next assay is T3, recombinant rat Aggrecan G1-IGD-G2 (rat, UniProt P07897 20-684, limits assumed).
T3 construct: also called Rat G1-IGD-G2
The assay is described as follows: ELISA on recombinant G1-IGD-G2. In general terms: An ELISA detects its analyte on a solid surface through an enzyme-linked reagent.
Consider B1, for which the 50% effective concentration (EC50) is 8.4 nM.
On the same count and under the same terms, next, B2: 0.12 nM; B3: 0.32 nM; B4: 7.6 nM.
The same measure, in the same setting: next, B5: 0.19 nM; B6: 0.33 nM.
Still for that read-out and setting: next, B7: 0.095 nM.
Turning to B8, the EC50 is 5.9 nM.
As for B9, the EC50 came to 0.1 nM.

A further assay concerns the target T4, recombinant dog Aggrecan G1-IGD-G2 (dog, UniProt Q28343 20-693, limits assumed).
T4 construct: also called Dog G1-IGD-G2
The assay is described as follows: ELISA on recombinant G1-IGD-G2.
For the molecule B1, the EC50 came to 6.9 nM.
On the same count and under the same terms, with B2 the figure was 3 nM; with B3, 0.61 nM; with B4, 3 nM.
Take B5: the 50% effective concentration (EC50) worked out at 0.24 nM.
As to B6, the EC50 is 25 nM.
As for B7, the EC50 was 0.33 nM.
B8: the EC50 was 2.6 nM.
Take B9: the EC50 was found to be 0.097 nM.

Another assay has as its target T5, recombinant bovine Aggrecan G1-IGD-G2 (bovine, UniProt P13608 20-684, limits assumed).
T5 construct: also called Bov G1-IGD-G2; Boy G1-IGD-G2
Kind of assay: ELISA on recombinant G1-IGD-G2.
Take B3: the half-maximal effective concentration (EC50) is 1.2 nM.
Same read-out and setting: with B4 the figure was 5.6 nM; with B5, 0.37 nM.
Still for that read-out and setting: with B6 the figure was 0.28 nM.
Same read-out and setting: with B7 the figure was 0.077 nM; with B8, 1.6 nM.

In another assay the target is T1, recombinant human Brevican. The assay is described as follows: ELISA on recombinant human Brevican.
Consider B1, for which the binding result was “no binding”.
Consider B3, for which the binding result is “no binding”.
Take B4: the binding result is given as “no binding”.
For B6, the binding result was “no binding”.
B8: the binding result is given as “no binding”.

The target in the next assay is recombinant human Neurocan (human, UniProt O14594 23-1321, limits assumed). The assay is described as follows: ELISA on recombinant human Neurocan.
As for B2, the EC50 came to 0.87 nM.
In the case of B3, the binding result is on record as “no binding”.
On the same count and under the same terms, with B4 the entry was “no binding”; with B6, “no binding”.
For B8, the binding result is “no binding”.

A further assay has as its target T2, recombinant human Aggrecan G1-IGD-G2. Kind of assay: SPR (ProteOn), off-rate only indicative.
Protocol: (§1) SPR (ProteOn) experiments were carried out for the “monovalent” Aggrecan-ALB26 formats in order to determine off-rates.
What is called koff is the first-order rate constant of dissociation. Consider B1, for which the koff is 0.021 s⁻¹.
The same measure, in the same setting: next, B3: 0.0034 s⁻¹; B4: 0.013 s⁻¹.
Same read-out and setting: next, B6: 0.0025 s⁻¹.
Same read-out and setting: with B8 the figure was 0.17 s⁻¹.

The next assay has as its target T3, recombinant rat Aggrecan G1-IGD-G2. Kind of assay: SPR (ProteOn), off-rate only indicative.
Protocol: as §1
For the molecule B1, the koff is 0.021 s⁻¹.
Still for that read-out and setting: with B3 the figure was 0.00025 s⁻¹.
Same read-out and setting: with B4 the figure was 0.65 s⁻¹.
As for B6, the off-rate constant (koff) was determined as 0.0015 s⁻¹.
Still for that read-out and setting: next, B8: 0.26 s⁻¹.

In another assay the target is T4, recombinant dog Aggrecan G1-IGD-G2. Kind of assay: SPR (ProteOn), off-rate only indicative.
Protocol: as §1
In the case of B1, the off-rate constant (koff) came out at 0.038 s⁻¹.
Still for that read-out and setting: with B3 the figure was 0.0071 s⁻¹; with B4, 0.011 s⁻¹; with B6, 0.083 s⁻¹.
Same read-out and setting: with B8 the figure was 0.12 s⁻¹.

For the next assay, the target named is T5, recombinant bovine Aggrecan G1-IGD-G2. Kind of assay: SPR (ProteOn), off-rate only indicative.
Protocol: as §1
As for B1, the koff came out at 0.027 s⁻¹.
Same read-out and setting: next, B3: 0.0013 s⁻¹; B4: 0.47 s⁻¹; B6: 0.0027 s⁻¹.
The same measure, in the same setting: with B8 the figure was 0.26 s⁻¹.
